Measured values taken from the DeepSol protein solubility set.

Assay: soluble on expression in E. coli; label from the status in PepcDB or PDB records

| Sequence | soluble on expression in E. coli |
| --- | --- |
| MGSDKIHHHHHHMVRDIDKTTSLHLNNEAQFLCFRLDAEKDAQLYGMNIFKIREIIHYDGEVTEILGGSDGVMLGFLSVRGESIPLVDVKRWLHYNANDPSRDLKECSVKDDHNLVIVCHFSNHSIALKVLKIERIIHKNWTEISAGDKQGINEEGKLSAITRFDEERVVQILDVEKMISDVFPSLKDLDDLTLRCIEAIQSQKLILIAEDSLSALKTLEKIVQTLELRYLAFPNGRELLDYLYEKEHYQQVGVVITDLEMPNISGFEVLKTIKADHRTEHLPVIINSSMSSDSNRQLAQSLEADGFVVKSNILEIHEMLKKTLS | not soluble |
| MSLSNKDIRVVVGMSGGVDSSVTAHVLKEQGYDVIGIFMKNWDDTDENGVCTATEDYNDVIEVCNQIGIPYYAVNFEKEYWDKVFTYFLDEYKKGRTPNPDVMCNKEIKFKAFLDHAMNLGADYVATGHYARIHRHEDGHVEMLRGVDNNKDQTYFLNQLSQQQLSKVMFPIGDIEKSEVRRIAEEQGLVTAKKKDSTGICFIGEKNFKTFLSQYLPAQPGDMITLDGKKMGKHSGLMYYTIGQRHGLGIGGDGDPWFVVGKNLKDNVLYVEQGFHHDALYSDYLIASDYSFVNPEDNDLDQGFECTAKFRYRQKDTKVFVKRENDHALRVTFAEPVRAITPGQAVVFYQGDVCLGGATIDDVFKNEGQLNYVVEGHHHHHH | soluble |
| MSNHHSSCSSRTGGAHRRCDCTEDLTENDKLWNDFEGCAQAVARLYSDSSWRNFRGAAEGTTQLYKTSTDSYRRGFEKGFSSGCTSIAKEILQAFRDPSKIDMNIVLEVLYRNMAIPREERLTVNTQNGISSDTLAAVELFQQALNQPQVPPLSTLSLLPPTTREQTTDTLDEFLASQVQRHRKRQRSPNNSTTSPTSQMKRQRRL | soluble |
| MGSDKIHHHHHHMSEKQQILDYIETNKYSYIEISHRIHERPELGNEEIFASRTLIDRLKEHDFEIETEIAGHATGFIATYDSGLDGPAIGFLAEYDALPGLGHACGHNIIGTASVLGAIGLKQVIDQIGGKVVVLGCPAEEGGENGSAKASYVKAGVIDQIDIALMIHPGNETYKTIDTLAVDVLDVKFYGKSAHASENADEALNALDAMISYFNGVAQLRQHIKKDQRVHGVILDGGKAANIIPDYTHARFYTRAMTRKELDILTEKVNQIARGAAIQTGCDYEFGPIQNGVNEFIKTPKLDDLFAKYAEEVGEAVIDDDFGYGSTDTGNVSHVVPTIHPHIKIGSRNLVGHTHRFREAAASVHGDEALIKGAKIMALMGLELITNQDVYQDIIEEHAHLKGNGK | not soluble |
| MSDLHTKLGSGMNKLQEGIEQGKMKLQVAQEIAQLKKGMQVQMQKKAEVLLEVGQQVYVQLRGSGVNEASLKEMIAPVQEFDVAIYQARKRIVELQKQQGEKATCECGGPLSINDKFCGSCGKPNPMLTVENEGETVNCISCNEHIDKNSTYCPVCGIKQSGE | not soluble |
| GPLGSPWYYGKVTRHQAEMALNERGHEGDFLIRDSESSPNDFSVSLKAQGKNKHFKVQLKETVYCIGQRKFSTMEELVEHYKKAPIFTSEQGEKLYLVKHLS | soluble |
| MGSDKIHHHHHHMDRLQLLEYWLKALYPDQPCTLSPASADASFRRYFRASLPGKTLIVMDAPPQQEDCRPFLHAASIFSRASVHVPAIVAQDLNQGFLLLSDLGTTTYLQALTAAPENANRLYQDAIDALIKIQCASQKNIFPEYDRILLSRELELFPDWYMTRHLHAPPDDDQKNTLKTVFNLILANNLAQPQVFVHRDYHSRNLMVSTPNPGIIDFQDAVLGPITYDLVSLFKDAYIQWEEAQILDWMIRYWEKARHAGLPVATDFSIFYRDFEWMGVQRHLKVLGIFARLCYRDNKPTYLQDMPAIMQYLRQTCERYSELHPLSRLLDRLEDRQAETGYTF | not soluble |
| MGSDKIHHHHHHMELHIRLEGRKGLADQLYQQLRDGIDSGHLAAGSQLPPTRLLAEQLGVSRKTVAEAYSRLTYDNLLSGVVGRGTFVTPRHPLRSNESATLPLAGAASLERWQQRATVLSQRQLQAPSRYDFVGGASSKAQFPFDQWRSCLNYALRRSQRHPERQFPAQGLPELREAIAHHIAYSRGVHCSAADLLVCNGAQQALDLIARVLVEPGCQVAMEDPGYPPARQLFLALGARLQSVPVDDEGLCVEQIADGTRLIYVTPSHQFPLGMPMSEPRRHALLARAAELGALIIEDDYDCEFRYHGPASDALQRLDRHGLVAYVGTFSKTLLPELRLGYAVLPPAVLQAACVAKHLSDWHSPTLLQWALARFLGEGHLNKHIRRCHEVYSARRERILARLGGDLAPWFSAIPASAGFHLSALATPGVDVELLANLARKVEVGLYSLAPFFSEAPVRPGLLMGFGAIELLDIDPALDRVRDTLQRLS | not soluble |
| MSSSPSLPSSASVPAAFDRAPVSGLPDNAIEIDALRKVYGGGKVALESLSLAIPRGSFFGLLGPNGAGKSTLINIMAGLVRKTSGRVRIWGNDIDTDERAARCAIGIVPQELSFDPFFTPREMLDVQAGLYGVPKAERRTLEILRAVGLEDKADAYSRTLSGGMRRRLLVAKAMVHSPPILVLDEPTAGVDIELRQQLWAYVRDLNARGTTVLLTTHYLEEAEELCDRIAIIDHGKVVVSEPTTTLLGRLDNKSLTLRLAQPLDAPPPALAALGAELRDPYHLVITYHPSSLPMARILDAARAGGLTIADLTTREADLEDVFLRLTSSHHRAQEIGLEHHHHHH | soluble |
| MSLTISNEDNMILMSRYPDKYFDLAIVDPPYGILNKTKRGGDYKFNMNEYSQWDIKPDQTYFNELFRVSKNQIIWGGNYFGELWLRSEYNKGFIIWDKNQPETLNNFSMAEMAWSSFDRPSKIFRFSVRKNRNKTHPTQKPVELYQWLLKMYAKQGDKILDTHLGSGTLAIACCIAQFDLTACEINSDYYQQSIEKIKNNLPEARISFGHPGYCIIEEGGSHHHHHH | soluble |
| MSLKTRYVLSCLLLGSALSVSAQKMAVKSNLLSAANGALNAGVEYAFGPKSTFDLSGSIRPWKRTEGYVNKYWLIQPEYRYWTCQKFNGSFWGAYLNGAQFNVGGKKMPFGLFPWLKEHRYAGWLTGGGISYGYHIMLNRHWNIEVSVGVGYEYIDYKKYKCPDVCAELLEKGHYHYFGPSKASLSIVYIFNEGHHHHHH | not soluble |
| MAANSLPTNVASPVQTTTPTTDKRSIGFIDRQLGTNPAELPPLPYGYDALEKAIDAETMKLHHDKHHAAYVNNLNNALKKHPELQNSSVEALLRDLNSVPEDIRTTVRNNGGGHLNHTIFWQIMSPDGGGQPTGDIAQEINQTFGSFEEFKKQFNQAGGDRFGSGWVWLVRNPQGQLQVVSTPNQDNPIMEGSYPIMGNDVWEHAYYLRYQNRRPEYLNNWWNVVNWSEINRRTQASRQSNSHHHHHH | soluble |
| REFAPPPNLPDPKFESKAALLAARGPEELLCFTERLEDLVCFWEEAASAGVGPGQYSFSYQLEDEPWKLCRLHQAPTARGAVRFWCSLPTADTSSFVPLELRVTAASGAPRYHRVIHINEVVLLDAPVGLVARLADESGHVVLRWLPPPETPMTSHIRYEVDVSAGQGAGSVQRVEILEGRTECVLSNLRGRTRYTFAVRARMAEPSFGGFWSEWSEPVSLLTPSDLD | soluble |
| MGSDKIHHHHHHMKGIISLIHGGKTFVDQIHSACQDAGIELYVISSNTVDADLLQNMSDKATVLEVIEGTDLNFESVLSFVEKLQQSNKQALACISVWENYRPLMARLNQALGAQDMCPEQVNLLRDKHLLRKVLYDAGLSQVNSRILTQEVFIQIQKNRELAFVKPRQGIASYGAFKLRPSTQWQQITEIAEQIQSDAVFSSSFADEVEFVAEDYISGVEFCFEIIHHDGQCNLIAIHEKLEVGEQNLTTLENVSASPPISLNRKQIEQANLWVSSIFERLELGSGCYHLEAKFDNNQWEVIEINPRIGGSYINESVAHVAGYSLLELWIRSLLRAGCSEYQAFLKVLSPHSEQFFERQQGSYFRVFFAEPNRTISRLNFKLGTPPIHKKLLMKEGQTTPNASRELFMAQALWSWSVSQDSVQTRAQISESLTALEVEYE | not soluble |
| MKIKSIRKAVLLLALLTSTSFAAGKNVNVEFRKGHSSAQYSGEIKGYDYDTYTFYAKKGQKVHVSISNEGADTYLFGPGIDDSVDLSRYSPELDSHGQYSLPASGKYELRVLQTRNDARKNKTKKYNVDIQIK | soluble |
| MHEQLNSRVETCYLQAETFFKRTFKRPVVSFQLRGQKAGVAHLHENLLRFNPQLYQENAEDFLRQTVPHEVAHLVAHQLFGGGIQPHGEEWQLIMRGVYELPPNRCHTYAVQRRSVIRYIYRCPCPDSDFPFTSQRHSMVRKGRRYLCRRCREPLMFSGETRTELEHHHHHH | not soluble |
| MSLKQFKSIINTSQDFEKRIEKIKKEVINDPDVKQFLEAHRAELTNAMIDEDLNVLQEYKDQQKHYDGHKFADCPNFVKGHVPELYVDNNRIKIRYLQCPCKIKYDEERFEAELITSHHMQRDTLNAKLKDIYMNHRDRLDVAMAADDICTAITNGEQVKGLYLYGPFGTGKSFILGAIANQLKSKKVRSTIIYLPEFIRTLKGGFKDGSFEKKLHRVREANILMLDDIGAEEVTPWVRDEVIGPLLHYRMVHELPTFFSSNFDYSELEHHLAMTRDGEEKTKAARIIERVKSLSTPYFLSGENFRNNEGHHHHHH | soluble |
| MRRNSKERKNRATRRSQGSYQEIIGRTWIFRGAHRGRVTRRNIIWHELIGLRVRIVGSTHPAFVGIEGYVIDETRNMLVIAGDRIWKVPKDVCIFEFEADDGTKIKIPGERLVGRPEMRLKKRWKKWLEHHHHHH | not soluble |
| MPVSPEREQALSEFVAAVQAREDVQSELNEITTLDQLKTIVDSIEPALTGAALIPFEQATSPPKITVDSGVLDKNIPWRLLRCPGGPLVLQMICTRVNFALWIESC | not soluble |
| MTIRSYKNLNLVRANIETESRQFIENKNYSIQSIGPMPGSRAGLRVVFTRPGVNLATVDIFYNGDGSTTIQYLTGANRSLGQELADHLFETINPAEFEQVNMVLQGFVETSVLPVLELSADESHIEFREHSRNAHTVVWKIISTSYQDELTVSLHITTGKLQIQGRPLSCYRVFTFNLAALLDLQGLEKVLIRQEDGKANIVQQEVARTYLQTVMADAYPHLHVTAEKLLVSGLCVKLAAPDLPDYCMLLYPELRTIEGVLKSKMSGLGMPVQQPAGFGTYFDKPAAHYILKPQFAATLRPEQINIISTAYTFFNVERHSLFHMETVVDASRMISDMARLMGKATRAWGIIKDLYIV | soluble |
| ASDRQLGPPRMCEPSPREQLMESIRKGKELKQITPPEA | soluble |
| MSALKSFTVNFHQEDNAKATTVHKLSEEDFNKATEKGTRHLFDLDTNVGFFVFFDAEDAEGNDQYLMLQYEGDHEEPTACYGFDLKLYYQFLALYLNDLEFQGETDEEEEEYGPIHHLAHLLYHIVEDGKSIEV | not soluble |
| MPYLLEMKNITKTFGSVKAIDNVCLRLNAGEIVSLCGENGSGKSTLMKVLCGIYPHGSYEGEIIFAGEEIQASHIRDTERKGIAIIHQELALVKELTVLENIFLGNEITHNGIMDYDLMTLRCQKLLAQVSLSISPDTRVGDLGLGQQQLVEIAKALNKQVRLLILDEPTASLTEQETSILLDIIRDLQQHGIACIYISHKLNEVKAISDTICVIRDGQHIGTRDAAGMSEDDIITMMVGRELTALYPNEPHTTGDEILRIEHLTAWHPVNRHIKRVNDVSFSLKRGEILGIAGLVGAGRTETIQCLFGVWPGQWEGKIYIDGKQVDIRNCQQAIAQGIAMVPEDRKRDGIVPVMAVGKNITLAALNKFTGGISQLDDAAEQKCILESIQQLKVKTSSPDLAIGRLSGGNQQKAILARCLLLNPRILILDEPTRGIDIGAKYEIYKLINQLVQQGIAVIVISSELPEVLGLSDRVLVMHEGKLKANLINHNLTQEQVMEAALRSEHHVEKQSV | not soluble |
